Measurements taken from patent US11306156.
Blank lines part the entries; values can stand above or below the substance they belong to.

What was measured:
[1] = target: D3H44 light chain Q124R_T178R; experiment: SMCA, LC-MS of 4 co-expressed chains; competing light chain m25
[2] = target: D3H44 light chain Q124R_T178R; experiment: SMCA, LC-MS of 4 co-expressed chains; competing light chain m30
[3] = target: D3H44 light chain Q124R_T178R; experiment: SMCA, LC-MS; change vs wild-type bispecific; competing light chain m25
[4] = target: D3H44 light chain Q124R_T178R; experiment: SMCA, LC-MS; change vs wild-type bispecific; competing light chain m30
[5] = target: D3H44 light chain Q124R_T178R; experiment: SMCA: H1, H2, L1, L2 co-expressed in CHO-3E7, protein A, LC-MS; competitor light chain m24
[6] = target: D3H44 light chain Q124R_T178R; experiment: SMCA: H1, H2, L1, L2 co-expressed in CHO-3E7, protein A, LC-MS; competitor light chain m34
[7] = target: D3H44 light chain Q124R_T178R; experiment: SMCA, LC-MS of 4 co-expressed chains; competing light chain m27
[8] = target: D3H44 light chain Q124R_T178R; experiment: SMCA, LC-MS; change vs wild-type bispecific; competing light chain m27
[9] = target: D3H44 light chain Q124R_T178R; experiment: SMCA: LC-MS of protein A purified product after co-expression of H1, H2, L1, L2 in CHO-3E7; competing light chain m51
[10] = target: D3H44 light chain Q124E_V133E; experiment: SMCA, LC-MS of 4 co-expressed chains; competing light chain m26
[11] = target: D3H44 light chain Q124E_V133E; experiment: SMCA, LC-MS of 4 co-expressed chains; competing light chain m42
[12] = target: D3H44 light chain Q124E_V133E; experiment: SMCA, LC-MS; change vs wild-type bispecific; competing light chain m42
[13] = target: D3H44 light chain Q124E_V133E; experiment: SMCA, LC-MS; estimated change vs similar wild type (***); competing light chain m26
[14] = target: D3H44 light chain Q124E_V133E; experiment: SMCA: 2 heavy + 2 light chains co-expressed, protein A, LC-MS; competing light chain m45
[15] = target: D3H44 light chain Q124E_V133E; experiment: SMCA: LC-MS of protein A purified product after co-expression of H1, H2, L1, L2 in CHO-3E7; competing light chain m52
[16] = target: D3H44 light chain Q38R_Q124R_Q160K_T178R; experiment: SMCA: 2 heavy + 2 light chains co-expressed, protein A, LC-MS; competing light chain m20
[17] = target: D3H44 light chain Q38R_Q124R_Q160K_T178R; experiment: SMCA: H1, H2, L1, L2 co-expressed in CHO-3E7, protein A purified, LC-MS; competing light chain m16
[18] = target: D3H44 light chain Q38R_Q124R_Q160K_T178R; experiment: SMCA: H1, H2, L1, L2 co-expressed in CHO-3E7, protein A purified, LC-MS; competing light chain m18
[19] = target: D3H44 light chain Q38R_Q124R_Q160K_T178R; experiment: SMCA: H1, H2, L1, L2 co-expressed in CHO-3E7, protein A purified, LC-MS; competing light chain m16; against wild-type bispecific
[20] = target: D3H44 light chain Q38R_Q124R_Q160K_T178R; experiment: SMCA: H1, H2, L1, L2 co-expressed in CHO-3E7, protein A purified, LC-MS; competing light chain m18; against wild-type bispecific
[21] = target: D3H44 light chain Q38E_Q124E_Q160E_T180E; experiment: SMCA: H1, H2, L1, L2 co-expressed in CHO-3E7, protein A, LC-MS; competitor light chain m47
[22] = target: D3H44 light chain Q38E_Q124E_Q160E_T180E; experiment: SMCA: H1, H2, L1, L2 co-expressed in CHO-3E7, protein A purified, LC-MS; competing light chain m12
[23] = target: D3H44 light chain Q38E_Q124E_Q160E_T180E; experiment: SMCA: H1, H2, L1, L2 co-expressed in CHO-3E7, protein A purified, LC-MS; competing light chain m12; *** estimated change against a similar wild-type construct
[24] = target: D3H44 light chain Q124E_L135W_Q160E_T180E; experiment: SMCA, LC-MS of 4 co-expressed chains; competing light chain m28
[25] = target: D3H44 light chain Q124E_Q160E_T180E; experiment: SMCA, LC-MS of 4 co-expressed chains; competing light chain m31
[26] = target: D3H44 light chain Q124E_Q160E_T180E; experiment: SMCA, LC-MS of 4 co-expressed chains; competing light chain m48
[27] = target: D3H44 light chain Q124E_L135W_Q160E_T180E; experiment: SMCA, LC-MS; change vs wild-type bispecific; competing light chain m28
[28] = target: D3H44 light chain Q124E_Q160E_T180E; experiment: SMCA, LC-MS; change vs wild-type bispecific; competing light chain m31
[29] = target: D3H44 light chain Q124E_Q160E_T180E; experiment: SMCA, LC-MS; change vs wild-type bispecific; competing light chain m48
[30] = target: D3H44 light chain Q124E_L135W_Q160E_T180E; experiment: SMCA: H1, H2, L1, L2 co-expressed in CHO-3E7, protein A, LC-MS; competitor light chain m32
[31] = target: D3H44 light chain Q124E_Q160E_T180E; experiment: SMCA: H1, H2, L1, L2 co-expressed in CHO-3E7, protein A, LC-MS; competitor light chain m37
[32] = target: D3H44 light chain Q124E_Q160E_T178E; experiment: SMCA, LC-MS of 4 co-expressed chains; competing light chain m26
[33] = target: D3H44 light chain Q124E_S176L_T180E; experiment: as above
[34] = target: D3H44 light chain Q124E_Q160E_T178E; experiment: SMCA, LC-MS of 4 co-expressed chains; competing light chain m42
[35] = target: D3H44 light chain Q124E_S176L_T180E; experiment: SMCA, LC-MS; change vs wild-type bispecific; competing light chain m26
[36] = target: D3H44 light chain Q124E_Q160E_T178E; experiment: SMCA, LC-MS; change vs wild-type bispecific; competing light chain m42
[37] = target: D3H44 light chain Q124E_Q160E_T178E; experiment: SMCA, LC-MS; estimated change vs similar wild type (***); competing light chain m26
[38] = target: D3H44 light chain Q124E_S176L_T180E; experiment: SMCA: 2 heavy + 2 light chains co-expressed, protein A, LC-MS; competing light chain m16
[39] = target: D3H44 light chain Q124E_Q160E_T178E; experiment: SMCA: LC-MS of protein A purified product after co-expression of H1, H2, L1, L2 in CHO-3E7; competing light chain m52
[40] = target: D3H44 light chain Q124E_S131T_T178Y_T180E; experiment: as above
D3H44 light chain S131E = experiment: SMCA: LC-MS of protein A purified product after co-expression of H1, H2, L1, L2 in CHO-3E7; competing light chain m53

Substance: D3H44 heavy chain L143E_K145T_Q179E (from UniProt P0DOX5 2-448)
- % H1L1 Pairing (over all H1 species) [1]: 100%
- % H1L1 Pairing (over all H1 species) [2]: 100%
- Change in % H1L1 Pairing (over all H1 species) with respect to wild type [3]: 38.1%
- Change in % H1L1 Pairing (over all H1 species) with respect to wild type [4]: 38.1%
- % H1L1 Pairing (over all H1 species) [5]: 100%
- % H1L1 Pairing (over all H1 species) [6]: 100%

Substance: D3H44 heavy chain L143E_K145T_Q179E_S188L (from UniProt P0DOX5 2-448)
- % H1L1 Pairing (over all H1 species) [7]: 94.3%
- Change in % H1L1 Pairing (over all H1 species) with respect to wild type [8]: 32.4%
- % H1L1 Pairing (over all H1 species) [9]: 94.3%

Substance: D3H44 heavy chain L143R (from UniProt P0DOX5 2-448)
- % H1L1 Pairing (over all H1 species) [10]: 100%
- % H1L1 Pairing (over all H1 species) [11]: 97.1%
- Change in % H1L1 Pairing (over all H1 species) with respect to wild type [12]: 59.8%
- Change in % H1L1 Pairing (over all H1 species) with respect to wild type [13]: 43.3%
- % H1L1 Pairing (over all H1 species) [14]: 100%
- % H1L1 Pairing (over all H1 species) [15]: 100%

Substance: D3H44 heavy chain S186K (from UniProt P0DOX5 2-448)
- % H1L1 Pairing (over all H1 species) [32]: 100%
- % H1L1 Pairing (over all H1 species) [33]: 100%
- % H1L1 Pairing (over all H1 species) [34]: 98.2%
- Change in % H1L1 Pairing (over all H1 species) with respect to wild type [35]: 52.5%
- Change in % H1L1 Pairing (over all H1 species) with respect to wild type [36]: 60.9%
- Change in % H1L1 Pairing (over all H1 species) with respect to wild type [37]: 43.3%
- % H1L1 Pairing (over all H1 species) [38]: 100%
- % H1L1 Pairing (over all H1 species) [39]: 100%
- % H1L1 Pairing (over all H1 species) [40]: 100%
- % H1L1 Pairing (over all H1 species) (D3H44 light chain S131E): 100%

The remaining lines, values ahead:

- % H1L1 Pairing (over all H1 species) [16]: 100%
- % H1L1 Pairing (over all H1 species) [17]: 100%
- % H1L1 Pairing (over all H1 species) [18]: 86.6%
- Change in % H1L1 Pairing (over all H1 species) with respect to wild type [19]: 38.1%
- Change in % H1L1 Pairing (over all H1 species) with respect to wild type [20]: 46%
Substance: D3H44 heavy chain Q39E_L143E_K145T_Q179E (from UniProt P0DOX5 2-448)

- % H1L1 Pairing (over all H1 species) [21]: 100%
- % H1L1 Pairing (over all H1 species) [22]: 100%
- Change in % H1L1 Pairing (over all H1 species) with respect to wild type [23]: 43.3%
Substance: D3H44 heavy chain Q39R_H172R_Q179K (from UniProt P0DOX5 2-448)

- % H1L1 Pairing (over all H1 species) [24]: 100%
- % H1L1 Pairing (over all H1 species) [25]: 100%
- % H1L1 Pairing (over all H1 species) [26]: 100%
- Change in % H1L1 Pairing (over all H1 species) with respect to wild type [27]: 38.1%
- Change in % H1L1 Pairing (over all H1 species) with respect to wild type [28]: 52.5%
- Change in % H1L1 Pairing (over all H1 species) with respect to wild type [29]: 62.7%
- % H1L1 Pairing (over all H1 species) [30]: 100%
- % H1L1 Pairing (over all H1 species) [31]: 100%
Substance: D3H44 heavy chain Q179K (from UniProt P0DOX5 2-448)
